These results are taken from PMC314469, “Protein Interaction Networks by Proteome Peptide Scanning” (PLoS Biology, 2004).

To fix the notation:
T1: Abp1 SH3 (ABP1_YEAST), P15891
T1 chain: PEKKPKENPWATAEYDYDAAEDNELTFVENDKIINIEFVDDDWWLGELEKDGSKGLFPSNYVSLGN

The target of this experiment is T1, Abp1 SH3 (ABP1_YEAST), P15891. The experiment is described as follows: SPOT array.
Regarding VVRIKGINKIPPKP [YGL076C 86-99], the normalised SPOT signal, Boehringer light units (BLU); mean over the file's lines of this peptide worked out at 615.

In turn, VSHGDLNLINPMRP [YOL042W 270-283] had a normalised SPOT signal, Boehringer light units (BLU); mean over the file's lines of this peptide of 107. VGNYAYGAGHPMKP [YNL330C 29-42] yielded a normalised SPOT signal, Boehringer light units (BLU); mean over the file's lines of this peptide of 97.4.

For the molecule VVDIEVPMEYPFKP [YDR177W 53-66], the normalised SPOT signal, Boehringer light units (BLU); mean over the file's lines of this peptide is 40.3. VFYENNSPEKEKP [YOR129C 465-477]: the normalised SPOT signal, Boehringer light units (BLU); mean over the file's lines of this peptide came out at 118. Turning to VSSQPSLPRTLKP [YPL019C 812-824], the normalised SPOT signal, Boehringer light units (BLU); mean over the file's lines of this peptide was found to be 214. Turning to VSSSSTIPVLPKP [YJL201W 369-381], the normalised SPOT signal, Boehringer light units (BLU); mean over the file's lines of this peptide is 77.3. Turning to VVDGNLAHETPVKP [YGR188C 429-442], the normalised SPOT signal, Boehringer light units (BLU); mean over the file's lines of this peptide worked out at 93. To VLALNNLSQDPPKP [YJR033C 294-307] belongs 105; to VGGNPDIPSLLKP [YHR080C 52-64], 87.4. The molecule VMIIFTIPETYKP [YHR048W 242-254] displayed a normalised SPOT signal, Boehringer light units (BLU); mean over the file's lines of this peptide of 96. The molecule VSSTGSKSGPPPRP [YNL138W 345-358] had a normalised SPOT signal, Boehringer light units (BLU); mean over the file's lines of this peptide of 793. To VITPSQLPNSVRP [YFL036W 250-262] belongs 214.

The molecule VLNTRESPDSLKP [YGR109W-B 421-433] had a normalised SPOT signal, Boehringer light units (BLU); mean over the file's lines of this peptide of 103. Regarding VRDAYEKTLPPKRP [YKL032C 424-437], the normalised SPOT signal, Boehringer light units (BLU); mean over the file's lines of this peptide is 416. With VSHYHYGVKHPMKP [YGL194C 36-49], the normalised SPOT signal, Boehringer light units (BLU); mean over the file's lines of this peptide turned out to be 39.9. In the case of VSRFYQIPGTHRP [YBR235W 2-14], the normalised SPOT signal, Boehringer light units (BLU); mean over the file's lines of this peptide was 326. Molecule VFSGVTNQPSPIRP [YER129W 661-674] returned a normalised SPOT signal, Boehringer light units (BLU); mean over the file's lines of this peptide of 98.3. Consider VSLHLVRKVAPTKP [YHR070W 474-487], for which the normalised SPOT signal, Boehringer light units (BLU); mean over the file's lines of this peptide amounted to 5240. With VQMRMDPNQQPEKP [YDR258C 83-96], the normalised SPOT signal, Boehringer light units (BLU); mean over the file's lines of this peptide is 247. The molecule VIRNFRFVGLPKKP [YPR155C 202-215] returned a normalised SPOT signal, Boehringer light units (BLU); mean over the file's lines of this peptide of 145. Consider VEQSATIPESIKP [YGL238W 669-681], for which the normalised SPOT signal, Boehringer light units (BLU); mean over the file's lines of this peptide came to 27.7. To VNIEDITEPKPDKP [YDR363W 93-106] belongs 103; to VTKRPATSTPPRKP [YJR043C 299-312], 812; to VEVDMSLPENQKP [YBR111C 165-177], 20.2. As for VNYVDYYPLPDKP [YGL137W 187-199], the normalised SPOT signal, Boehringer light units (BLU); mean over the file's lines of this peptide worked out at 40.6.

Consider VLVTEKFPEVMKP [YMR208W 259-271], for which the normalised SPOT signal, Boehringer light units (BLU); mean over the file's lines of this peptide is 87.4. Turning to VENLGTNVTPPLRP [YPL242C 22-35], the normalised SPOT signal, Boehringer light units (BLU); mean over the file's lines of this peptide worked out at 64.4. Turning to VFKDPEGDYKPIKP [YLR084C 1187-1200], the normalised SPOT signal, Boehringer light units (BLU); mean over the file's lines of this peptide is -0. Take VIWQATTPVDVKP [YLR381W 153-165]: the normalised SPOT signal, Boehringer light units (BLU); mean over the file's lines of this peptide was found to be 57.5. For VERNFTDPGDGKP [YMR238W 135-147] the value was 73; for VFSKMAKKLLPYKP [YBR270C 205-218], 896. Consider VIIEFSSPNIAKP [YDR341C 145-157], for which the normalised SPOT signal, Boehringer light units (BLU); mean over the file's lines of this peptide stood at 38.1. On to VRRKPHSPNKKKP [YDR223W 11-23], for which the normalised SPOT signal, Boehringer light units (BLU); mean over the file's lines of this peptide is 98.

VTDLIKFPLMDKP [YNR011C 599-611] came in with a normalised SPOT signal, Boehringer light units (BLU); mean over the file's lines of this peptide of 88.1. With VILDARLPKNVKP [YDR107C 200-212], the normalised SPOT signal, Boehringer light units (BLU); mean over the file's lines of this peptide was determined as 99.6.

Take VLRLTDIEKTPQRP [YFL001W 315-328]: the normalised SPOT signal, Boehringer light units (BLU); mean over the file's lines of this peptide was 122. Take VSSSEIESVEPLKP [YMR219W 1122-1135]: the normalised SPOT signal, Boehringer light units (BLU); mean over the file's lines of this peptide is 56.1. As to VPKSTHDPSLAKP [YER167W 235-247], the normalised SPOT signal, Boehringer light units (BLU); mean over the file's lines of this peptide came out at 82.5. For VLSTLYQPNGFRP [YHR194W 300-312] the value was 54.5; for VIAVNDNPVVPRP [YOR324C 73-85], 140; for VNPIGITPLGPKP [YMR251W 349-361], 62.5.

Molecule VELVTVRPLDEKP [YJL105W 434-446] came in with a normalised SPOT signal, Boehringer light units (BLU); mean over the file's lines of this peptide of 20.9. With VPLQIVSPQSNKP [YDL140C 507-519], the normalised SPOT signal, Boehringer light units (BLU); mean over the file's lines of this peptide came to 20.8. As to VLDVSHSKYIPLKP [YGL017W 311-324], the normalised SPOT signal, Boehringer light units (BLU); mean over the file's lines of this peptide came out at 51.1. For the molecule VTDFNYTPSHQKP [YIL106W 99-111], the normalised SPOT signal, Boehringer light units (BLU); mean over the file's lines of this peptide amounted to 79. VQVQTTTSILPLKP [YGR188C 415-428] showed a normalised SPOT signal, Boehringer light units (BLU); mean over the file's lines of this peptide of 69.6. As for VKDYWEHPQAYKP [YMR250W 428-440], the normalised SPOT signal, Boehringer light units (BLU); mean over the file's lines of this peptide is 12.6. Turning to VSFDLKTPLRAKP [YMR092C 479-491], the normalised SPOT signal, Boehringer light units (BLU); mean over the file's lines of this peptide is 461.

Turning to VLPVKIQPPLLRP [YPR175W 10-22], the normalised SPOT signal, Boehringer light units (BLU); mean over the file's lines of this peptide was determined as 149. On to VIAILNPEVLPWRP [YIL150C 263-276], for which the normalised SPOT signal, Boehringer light units (BLU); mean over the file's lines of this peptide was 78.9. The molecule VNNEIHYYYPPVKP [YDR321W 235-248] yielded a normalised SPOT signal, Boehringer light units (BLU); mean over the file's lines of this peptide of 116. VPPTQSLPNGKKP [YER035W 35-47] registered a normalised SPOT signal, Boehringer light units (BLU); mean over the file's lines of this peptide of 79.3.

With VEYDYVDPRQLKP [YGL236C 383-395], the normalised SPOT signal, Boehringer light units (BLU); mean over the file's lines of this peptide came out at 51.9.
